Values of other authors, collected in paper PMC10991417.

Biological target: Vasa CTD (Drosophila melanogaster) (UniProt P09052)
Sequence of UniProt P09052 (P09052 463-623): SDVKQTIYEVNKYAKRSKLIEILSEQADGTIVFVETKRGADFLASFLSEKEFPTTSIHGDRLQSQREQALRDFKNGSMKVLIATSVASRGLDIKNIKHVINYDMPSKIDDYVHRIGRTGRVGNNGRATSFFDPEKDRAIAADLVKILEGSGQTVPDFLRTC

Kd: 10 µM
Substance: Oskar eLOTUS (from UniProt P25158)
